We go through 2 substances from PMC12719649.

Assay [1] addresses MED14-NTD+H+M+MED26, 16-subunit recombinant human core Mediator with f:MED14-NTD (1-760) (human) (UniProt O60244).
The target is the same in assay [2]. The assay is described as follows: co-IP; competition: MED14-NTD+H+M+MED26 on anti-MED30 beads with Pol II and recombinant RPB1 as competitor, equal amounts of His:RPB1 or up to 10-fold more f:RPB1 or f:ΔCTD RPB1 than Pol II; western blot.

As for “RNA polymerase II (Pol II), Gdown1-free, purified from HeLa nuclear extract (from UniProt P24928 1-1970; P30876 1-1174; P19387 1-275; O15514 1-142; P19388 1-210; P61218 1-127; P62487 1-172; P52434 1-150; P36954 1-125; P62875 1-67; P52435 1-117; P53803 1-58) (complex)”, the basal in vitro transcription from AdML core promoter templates in Mediator-depleted HeLa NE, 50 nM complex, against Mediator-deficient controls in assay [1] was over 15 fold. With “recombinant His:RPB1 (from UniProt P24928 1-1970) (natural protein)”, the percent reversal of the MED14-NTD+H+M+MED26-Pol II interaction at a 1:1 ratio in assay [2] was under 50%.
